How the values were obtained:
[1] = test system: F344 rats, lung graft; assay: Airway administration of apyrase agent after rat lung graft (Example 10); type: in vivo; conditions: for PaO2: saline about 200; for neutrophil accumulation in lung graft airways: saline control 12×10^2
Experimental: F344 rat lung grafts were flushed and cold preserved in Apyrase agent solution (0.2 mg/L) and engrafted into syngeneic F344 recipients.
At 5 minutes post-reperfusion 1 ml apyrase agent solution (1 mg/kg) (N=6) or an equivalent volume of saline carrier was administered to the trachea at approximately 5 minutes post-reperfusion (N=7). In additional group of lung graft recipients that were treated with apyrase agent intratracheally, apyrase agent was also administered intravenously at 7 minutes post-reperfusion at 0.66 mg/kg (N=9). Lung graft oxygenation, airway cellularity and airway granulocyte numbers were measured 4 hours post-reperfusion. We noted no gross pulmonary hematomas in any treatment groups.

[2] = test system: pigs, coronary injury with stenting; conditions: pig, in vivo
[3] = test system: rats, MCAO suture model with hyperglycemia; assay: Hyperglycemic hemorrhagic transformation in rat focal ischemia (MCAO suture model) (Example 3); type: in vivo
Experimental: Focal ischemia was produced using the MCAO (Middle Cerebral Artery Occlusion) suture model in rats. Removal of the suture at 3.5 h after MCAO signaled the beginning of the reperfusion period. Ischemia-reperfusion causes blood extravasation into infracted brain tissues, showing multiple dots, small petechiae and more confluent petechial hemorrhage.
The animals were divided into three groups: […]
Rats were sacrificed at 8 h after MCAO and brains were frozen and cut into 20 μm frozen sections with intervals at 1 mm. The sections were stained with hematoxylin-eosin (HE) or cresyl violet. The H-E staining was used for measurements of hemorrhage rate and hemorrhage volume. The cresyl violet staining was used for quantifying infarct volume and brain swelling. An MCID™ digital image analysis system (Imaging Research, Inc, St. Catherines, Ontario, Canada) was used for quantifying hemorrhage and infarct volume.

[4] = test system: ADP-induced platelet aggregation; assay: Ex vivo ADP-induced platelet aggregation in platelet-rich plasma in pigs (Example 5); parameters: species or system pig
[5] = test system: C57BL/6J mice, myocardial ischemia; assay: Mouse model of cardiac ischemia/reperfusion injury (Example 8); type: in vivo; conditions: 24 hr reperfusion
Experimental: A mouse model of cardiac ischemia/reperfusion injury was used to determine the effect of apyrase agent on infarct size. Myocardial ischemia was produced in C57BL/6J mice via left anterior coronary artery ligation. Mice were treated with apyrase agent (1 mg/kg, IV) or saline 5 min prior to 60 min of experimentally-induced myocardial ischemia or 50 min after ischemia (n=6-8 per group). After 24 hr of reperfusion, hearts were excised and area at risk and infarct size were determined by Evan's blue and triphenyltetrazolium staining.

[6] = test system: pigs, coronary injury with stenting; assay: Coronary injury (balloon overstretch) and bare metal stent in pigs: platelet accumulation and luminal stenosis (Example 6); type: in vivo, pig; conditions: 30 days after stenting, six measurements in two pigs
Experimental: Coronary injury with or without stenting in pigs is regarded as the best preclinical model for simulation of human angioplasty (Touchard, A. G., et al., Thromb. Res. (2007) 120:477-484). One coronary artery was injured by balloon overstretch in each pig and the site of injury including some overlap with the non-injured vessel was covered with a single bare metal stent (BMS).
Accumulation of ^111In-labeled autologous platelets on the stents over the first 24 h was measured in 4/6 pigs in each group. Radiolabeled platelets were injected 15 min before the coronary catheterization and the hearts perfusion-fixed after 24 h to obtain the stented vessel segment for counting radiolabeled platelets.

[7] = Pharmacokinetic study in rabbits, single IV bolus (serum ADPase and ATPase activities); type: in vivo, rabbit
Experimental: Pharmacokinetic studies of apyrase agent (sol CD39L3 R67G T69R) were conducted in rabbits where a single bolus was injected intravenously. At various time points (10 min to 24 h after injection), rabbits were bled by cardiac puncture and serum was prepared. Serum samples were examined for both ADPase and ATPase activities.

[8] = test system: Wistar Furth recipients of Lewis lungs; assay: Allogenic rat lung transplant model, Lewis to Wistar Furth (Example 11); type: in vivo; conditions: rats, 0.66 mg/kg/day IV for 7 days
Experimental: Lewis donor lungs stored for a minimal cold ischemia time of 1 hr were engrafted into allogenic Wistar Furth recipients and treated for 7 days in the following manner:
1. Saline: Received Saline 250 μl/day
2. Apyrase: Received Apyrase agent, 0.66 mg/kg/day IV
3. CyA (standard): Received Cyclosporine A 25 mg/kg/day, IP (standard dose used in previous studies)
4. CyA (low): Received Cyclosporine A 5.0 mg/kg/day, IP (sub optimal dose)
5. CyA (low)+apyrase agent: Received Cyclosporine A 5.0 mg/kg/day, IP and Received apyrase agent, 0.66 mg/kg/day IV
On post-operative day 7 recipients were evaluated for lung graft function by assessing PaO2 (FIG. 10) and then sacrificed and scored blindly for vascular rejection (FIG. 11) using the ISHLT scoring system by a pathologist who routinely evaluates lung allograft rejection. The ISHLT scoring criteria is a scale from where a score of A0 there is no evidence of vascular rejection as in completely syngeneic recipients (e.g., Lewis to Lewis lung transplantation) to A4 as is almost always observed in Lewis to Wistar Furth Recipients. Statistical differences between treatment groups (n=10) were determined by the student t test where significance differences were assessed as p<0.05. Control group for the alloimmune response was the Lewis to Lewis lung transplant combination.

[9] = test system: rats, embolic stroke (thrombus injection into internal carotid artery); assay: Embolic stroke model in rats, apyrase agent with or without r-tPA (Example 1); type: in vivo, rat; conditions: brains at 3 days
Experimental: The following groups were included in this study:
(1) control (saline treated), n=11;
(2) apyrase agent at 0.75 mg/kg, n=4;
(3) apyrase agent at 2.25 mg/kg, n=4;
(4) r-tPA (at 10 mg/kg), n=4;
(5) apyrase agent at 0.75 mg/kg plus r-tPA (10 mg/kg) and
(6) apyrase agent at 2.25 mg/kg plus r-tPA (10 mg/kg) (n=10).
All the treatments were initiated at 2 h following thrombus injection into internal carotid artery. Infarct volume and behavioral deficit were determined at day 3 after the stroke.

B1: sol CD39L3 R67G T69R (protein)
chain: EVLPPGLKYGIVLDAGSSGTRVYVYQWPAEKENNTGVVSQTFKCSVKGSGISSYGNNPQDVPRAFEECMQKVKGQVPSHLHGSTPIHLGATAGMRLLRLQNETAANEVLESIQSYFKSQPFDFRGAQIISGQEEGVYGWITANYLMGNFLEKNLWHMWVHPHGVETTGALDLGGASTQISFVAGEKMDLNTSDIMQVSLYGYVYTLYTHSFQCYGRNEAEKKFLAMLLQNSPTKNHLTNPCYPRDYSISFTMGHVFDSLCTVDQRPESYNPNDVITFEGTGDPSLCKEKVASIFDFKACHDQETCSFDGVYQPKIKGPFVAFAGFYYTASALNLSGSFSLDTFNSSTWNFCSQNWSQLPLLLPKFDEVYARSYCFSANYIYHLFVNGYKFTEETWPQIHFEKEVGNSSIAWSLGYMLSLTNQIPAESPLIRLPIEPPV
modifications: glycosylated; synthetically constructed apyrase
PaO2 ([1]; IT 1 mg/kg and IV 0.66 mg/kg, 4 hours post-reperfusion): ~320 mm Hg
reduction of neutrophils in the airway ([1]; airway administration, 4 hours post-reperfusion): over 50%
neutrophil accumulation in lung graft airways ([1]; airway alone): 5×10^2 neutrophils
neutrophil accumulation in lung graft airways ([1]; airway and IV): 3×10^2 neutrophils
PaO2 ([1]; intratracheally (IT) 1 mg/kg, 4 hours post-reperfusion): about 300 mm Hg
blood loss from a standardized incision of the abdominal wall [2]: not increased
hemorrhage volume in the striatum ([3]; 0.375 mg/kg IV at 3 h after MCAO (30 min before reperfusion), sacrifice at 8 h): 4.8±2.0 mm^3
neurological function ([3]; 0.375 mg/kg, 4.5 hour after MCAO): significantly improved neurological function
persistence of platelet inhibition ([4]; 0.9-2.25 mg/kg IV): at least 5 h
time after IV injection to >95% inhibition ([4]; 0.9-2.25 mg/kg IV): ≤ 5 min
inhibition of ADP-induced aggregation ([4]; 0.9-2.25 mg/kg single IV bolus with aspirin and heparin): > 95%
platelet aggregation by 24 h ([4]; 24 h after dosing): returned to normal
reduction of infarct size compared to the control group ([5]; 1 mg/kg IV 5 minutes prior to ischemia, 60 min ischemia): approximately 50%
reduction of infarct size ([5]; 1 mg/kg IV 50 min after ischemia): approximately 50%
average luminal stenosis [6]: 19.8±2%
half life in the circulation [7]: approximately 24 h
alloimmune responses in lung allograft recipients (PaO2, ISHLT vascular rejection score) [8]: effective at suppressing alloimmune responses
Hemorrhage #/total animals ([9]; apyrase agent 0.75 mg/kg (alone or plus r-tPA 10 mg/kg)): 0/4
Hemorrhage #/total animals ([9]; apyrase agent 2.25 mg/kg (alone or plus r-tPA 10 mg/kg)): 0/4
